Data from patent US20100260765A1 (AstraZeneca / MedImmune, published 2010).

Legend:
Test in all cases: cell-based or functional assay
[1] = target: T1, KDR (human, UniProt P35968 20-1356)
[2] = target: T1, KDR; remark: listed apart in the source
[3] = target: T1, KDR; remark: listed apart in the source
[4] = target: T1, KDR; remark: listed apart in the source
[5] = target: T1, KDR; remark: listed apart in the source

T1 sequence (P35968 20-1356): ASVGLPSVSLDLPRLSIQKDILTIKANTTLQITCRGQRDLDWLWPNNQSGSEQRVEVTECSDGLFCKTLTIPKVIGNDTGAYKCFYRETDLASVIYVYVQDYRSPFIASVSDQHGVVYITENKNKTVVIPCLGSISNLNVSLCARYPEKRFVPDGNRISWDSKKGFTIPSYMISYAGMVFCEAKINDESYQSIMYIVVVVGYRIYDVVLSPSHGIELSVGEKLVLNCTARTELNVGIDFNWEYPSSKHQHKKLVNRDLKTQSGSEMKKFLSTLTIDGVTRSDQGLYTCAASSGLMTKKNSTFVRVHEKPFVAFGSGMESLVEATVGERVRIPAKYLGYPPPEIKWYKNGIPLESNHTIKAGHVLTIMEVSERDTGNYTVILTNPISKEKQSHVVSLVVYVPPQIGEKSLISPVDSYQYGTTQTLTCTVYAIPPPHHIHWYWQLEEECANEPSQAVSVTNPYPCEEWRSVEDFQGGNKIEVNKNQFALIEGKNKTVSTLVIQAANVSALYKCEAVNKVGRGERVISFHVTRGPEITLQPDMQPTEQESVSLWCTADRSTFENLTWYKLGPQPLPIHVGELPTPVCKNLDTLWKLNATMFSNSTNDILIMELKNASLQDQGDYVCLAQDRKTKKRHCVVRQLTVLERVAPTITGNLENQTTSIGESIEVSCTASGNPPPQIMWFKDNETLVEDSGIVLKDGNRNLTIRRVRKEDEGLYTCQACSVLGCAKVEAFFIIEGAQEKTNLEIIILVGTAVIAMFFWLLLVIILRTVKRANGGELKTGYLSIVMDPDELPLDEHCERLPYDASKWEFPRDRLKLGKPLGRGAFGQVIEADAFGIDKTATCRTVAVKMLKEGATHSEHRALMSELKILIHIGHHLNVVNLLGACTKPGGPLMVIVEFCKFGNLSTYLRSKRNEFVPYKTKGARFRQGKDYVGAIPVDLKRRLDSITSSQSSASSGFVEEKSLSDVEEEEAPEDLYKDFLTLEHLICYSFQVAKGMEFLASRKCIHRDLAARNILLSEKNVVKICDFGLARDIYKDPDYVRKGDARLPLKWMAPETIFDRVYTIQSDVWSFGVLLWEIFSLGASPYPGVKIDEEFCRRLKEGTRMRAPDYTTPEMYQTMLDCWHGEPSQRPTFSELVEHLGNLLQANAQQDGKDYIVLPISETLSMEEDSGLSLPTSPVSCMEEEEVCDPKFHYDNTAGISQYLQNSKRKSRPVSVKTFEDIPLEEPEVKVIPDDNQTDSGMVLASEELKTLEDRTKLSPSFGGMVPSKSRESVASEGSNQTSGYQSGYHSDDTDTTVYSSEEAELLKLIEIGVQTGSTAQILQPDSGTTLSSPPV

| Activity at 133 nM (% Inhibition), 1-hour Pre-incubation at 4° C., Average [1] [%] | Activity at 133 nM (% Inhibition), 1-hour Pre-incubation at 4° C., N = 1 [1] [%] | Activity at 133 nM (% Inhibition), 24-hour Pre-incubation at 37° C., Average [2] [%] | Activity at 133 nM (% Inhibition), 24-hour Pre-incubation at 37° C., N = 1 [2] [%] | % of Max VEGF KDR pTyr Activity (at 133 nM antibody concentration), Average [3] [%] | % of Max VEGF KDR pTyr Activity (at 133 nM antibody concentration), N = 1 [3] [%] | % Inhibition of VEGF165-mediated 6-keto Prostaglandin F1α release at 133 nM Antibody Concentration, Average [5] [%] | % Inhibition of VEGF165-mediated 6-keto Prostaglandin F1α release at 133 nM Antibody Concentration, N = 1 [5] [%] | Activity at 133 nM (% Inhibition), 1-hour Pre-incubation at 4° C., N = 2 [1] [%] | Activity at 133 nM (% Inhibition), 24-hour Pre-incubation at 37° C., N = 2 [2] [%] | % of Max VEGF KDR pTyr Activity (at 133 nM antibody concentration), N = 2 [3] [%] | % Inhibition of VEGF165-mediated 6-keto Prostaglandin F1α release at 133 nM Antibody Concentration, N = 2 [5] [%] | Binder | Activity at 133 nM Antibody Concentration (% Survival Inhibition), Average [4] [%] | Activity at 133 nM Antibody Concentration (% Survival Inhibition), N = 1 [4] [%] | Activity at 133 nM Antibody Concentration (% Survival Inhibition), N = 2 [4] [%] |
| --- | --- | --- | --- | --- | --- | --- | --- | --- | --- | --- | --- | --- | --- | --- | --- |
| 81 | 81 | 46 | 46 | 13 | 13 | 91 | 91 | – | – | – | – | 24C9 (antibody, V domains shown) VH: EVQLVESGGGLVKPGGSLRLSCAASGFTFSTYSMNWVRQAPGKGLEWVSFISGRSSYIYYADSVKGRFTISRDNAKNSLYLQMNSLRAEDTAVYYCSKDDWFEELWGQGTLVTVSS VL: DIQMTQSPSSLSASVGDRVTITCRASQGIRNDLGWYQQKPGKAPKRLIYATFSLQSGVPSRFSGSGSGTEFTLTISSLQPEDFATYYCLQHNRYPWTFGQGTKVEIK | 57 | 57 | – |
| 81 | 82 | 69 | 90 | 5 | 4 | 114 | 130 | 80 | 48 | 6 | 98 | 31E11 (antibody, V domains shown) VH: QVQLVESGGGLVKPGGSLRLSCAASGFTFSDYYMSWIRQAPGKGLEWVSYISISGSTIYYADSVKGRFTISRDNAKNSLYLQMNSLRAEDTAVYYCARDDFWSGYYFNWFDPWGQGTLVTVSS VL: DIQMTQSPSSLSASVGDRVTITCRANQTISTFLNWYQQNPGKAPKLLIYAASSLQSGVPSRFSGSGSGTDFTLTISSLQPEDFATYYCQQTYIIPLTFGGGTKVEIK | 89 | 83 | 95 |
| 77 | 78 | 77 | 85 | 8 | 5 | 113 | 128 | 75 | 68 | 10 | 98 | 33E1 (antibody, V domains shown) VH: QVQLQESGPGLVKPSQTLSLTCTVSGGSISSGDHYWSWIRQHPGKGLEWIGHIYYSGSTDYNPSLKSRVTISVDTSKNHFSLKLNSVTAADTAVYYCARTNSSSWSDWYFDLWGRGTLVTVSS VL: DIVMTQSPDSLAVSLGERATINCKSSQSILYSSNNKNYLAWYQRKPGQPPILLIHWASTRESGVPDRFSGSGSRTDFTLTISSLQAEDVAVYYCQQYFITPWTFGQGTKVEIK | 92 | 86 | 97 |
